Data on seven molecules can be found in article PMC3310290 (2012).

One may read the Kd as the constant that tells how readily two partners part at equilibrium. Low readings indicate tighter binding, high ones weaker binding. Usually Ki stands for a measure of affinity in units of concentration, obtained from inhibition or displacement. Read a high Ki as a looser hold on the target.

Positions of bridges follow the written chain, without caps; N, C: chain ends. No end group written: not given here. fluorescein = Fluorescein label on the N-terminus, attached via Aca

One assay addresses T1, fibrin (Homo sapiens, UniProt P02671).
T1 chain 1: ADSGEGDFLAEGGGVR
T1 chain 2: QGVNDNEEGFFSAR
T1 chain 3: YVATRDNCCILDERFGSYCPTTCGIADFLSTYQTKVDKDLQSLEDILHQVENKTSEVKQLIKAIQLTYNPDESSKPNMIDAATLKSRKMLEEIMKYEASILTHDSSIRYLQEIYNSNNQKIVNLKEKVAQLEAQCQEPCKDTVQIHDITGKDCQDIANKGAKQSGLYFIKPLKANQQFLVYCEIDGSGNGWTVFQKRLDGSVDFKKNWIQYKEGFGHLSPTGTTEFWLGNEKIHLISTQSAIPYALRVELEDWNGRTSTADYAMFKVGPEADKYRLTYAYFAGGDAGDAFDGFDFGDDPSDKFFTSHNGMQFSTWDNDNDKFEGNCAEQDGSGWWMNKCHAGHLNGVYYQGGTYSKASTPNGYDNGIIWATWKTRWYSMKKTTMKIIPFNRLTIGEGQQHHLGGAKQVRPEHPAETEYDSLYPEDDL
Kind of assay: fibrin plate depletion assay.

Assay [1] has as its target T2, fibrinogen (Homo sapiens, UniProt P02671).
T2 chain 1: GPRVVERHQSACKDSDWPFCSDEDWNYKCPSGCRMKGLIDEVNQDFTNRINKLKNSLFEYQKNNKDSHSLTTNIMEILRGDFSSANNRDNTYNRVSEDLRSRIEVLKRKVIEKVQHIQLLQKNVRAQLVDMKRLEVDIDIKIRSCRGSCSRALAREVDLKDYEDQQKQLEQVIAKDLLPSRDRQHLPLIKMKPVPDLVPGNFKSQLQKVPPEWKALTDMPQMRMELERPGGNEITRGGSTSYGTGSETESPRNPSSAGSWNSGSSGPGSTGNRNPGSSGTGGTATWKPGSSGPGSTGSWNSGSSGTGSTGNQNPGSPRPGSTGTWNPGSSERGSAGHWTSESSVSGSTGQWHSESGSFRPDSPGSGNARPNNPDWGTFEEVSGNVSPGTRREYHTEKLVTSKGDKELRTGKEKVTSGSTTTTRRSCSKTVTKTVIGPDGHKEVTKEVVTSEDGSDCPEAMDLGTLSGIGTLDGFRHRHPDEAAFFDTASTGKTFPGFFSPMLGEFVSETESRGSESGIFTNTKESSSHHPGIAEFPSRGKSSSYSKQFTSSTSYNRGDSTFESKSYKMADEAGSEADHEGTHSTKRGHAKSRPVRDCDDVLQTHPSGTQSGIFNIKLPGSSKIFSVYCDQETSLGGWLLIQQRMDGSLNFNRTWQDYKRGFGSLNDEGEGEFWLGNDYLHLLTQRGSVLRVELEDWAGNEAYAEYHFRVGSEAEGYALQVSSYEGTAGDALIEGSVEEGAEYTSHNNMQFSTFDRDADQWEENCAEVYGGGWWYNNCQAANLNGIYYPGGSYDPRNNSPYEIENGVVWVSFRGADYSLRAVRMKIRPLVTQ
T2 chain 2: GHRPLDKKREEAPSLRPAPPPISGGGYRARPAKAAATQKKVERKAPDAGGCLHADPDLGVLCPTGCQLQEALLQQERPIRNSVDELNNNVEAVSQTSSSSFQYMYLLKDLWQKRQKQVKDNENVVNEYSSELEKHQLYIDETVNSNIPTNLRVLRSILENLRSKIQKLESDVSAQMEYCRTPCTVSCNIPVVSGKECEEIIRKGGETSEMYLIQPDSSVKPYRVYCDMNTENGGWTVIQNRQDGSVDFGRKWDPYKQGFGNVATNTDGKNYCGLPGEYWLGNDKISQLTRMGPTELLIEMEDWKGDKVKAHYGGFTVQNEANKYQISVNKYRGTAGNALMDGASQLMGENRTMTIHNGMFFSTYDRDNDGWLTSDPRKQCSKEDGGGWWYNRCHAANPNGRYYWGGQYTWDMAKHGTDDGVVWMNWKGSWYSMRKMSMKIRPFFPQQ
T2 chain 3: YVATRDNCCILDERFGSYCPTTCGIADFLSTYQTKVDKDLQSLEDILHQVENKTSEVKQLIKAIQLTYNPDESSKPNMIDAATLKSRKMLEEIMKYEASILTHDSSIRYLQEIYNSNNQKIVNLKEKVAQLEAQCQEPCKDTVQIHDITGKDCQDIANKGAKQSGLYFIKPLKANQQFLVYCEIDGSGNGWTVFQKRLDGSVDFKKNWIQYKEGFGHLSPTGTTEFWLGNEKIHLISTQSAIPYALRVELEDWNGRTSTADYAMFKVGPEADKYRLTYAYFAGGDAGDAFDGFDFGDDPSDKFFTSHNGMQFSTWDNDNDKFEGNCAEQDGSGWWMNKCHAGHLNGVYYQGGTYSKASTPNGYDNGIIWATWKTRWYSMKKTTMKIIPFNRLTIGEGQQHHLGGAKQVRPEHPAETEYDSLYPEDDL
In words: ITC. In general terms: Isothermal titration calorimetry measures the heat released or taken up as one component is titrated into another.

Assay [2] concerns the target T3, DD(E) DD(E) (Homo sapiens, UniProt P02671).
T3 chain 1: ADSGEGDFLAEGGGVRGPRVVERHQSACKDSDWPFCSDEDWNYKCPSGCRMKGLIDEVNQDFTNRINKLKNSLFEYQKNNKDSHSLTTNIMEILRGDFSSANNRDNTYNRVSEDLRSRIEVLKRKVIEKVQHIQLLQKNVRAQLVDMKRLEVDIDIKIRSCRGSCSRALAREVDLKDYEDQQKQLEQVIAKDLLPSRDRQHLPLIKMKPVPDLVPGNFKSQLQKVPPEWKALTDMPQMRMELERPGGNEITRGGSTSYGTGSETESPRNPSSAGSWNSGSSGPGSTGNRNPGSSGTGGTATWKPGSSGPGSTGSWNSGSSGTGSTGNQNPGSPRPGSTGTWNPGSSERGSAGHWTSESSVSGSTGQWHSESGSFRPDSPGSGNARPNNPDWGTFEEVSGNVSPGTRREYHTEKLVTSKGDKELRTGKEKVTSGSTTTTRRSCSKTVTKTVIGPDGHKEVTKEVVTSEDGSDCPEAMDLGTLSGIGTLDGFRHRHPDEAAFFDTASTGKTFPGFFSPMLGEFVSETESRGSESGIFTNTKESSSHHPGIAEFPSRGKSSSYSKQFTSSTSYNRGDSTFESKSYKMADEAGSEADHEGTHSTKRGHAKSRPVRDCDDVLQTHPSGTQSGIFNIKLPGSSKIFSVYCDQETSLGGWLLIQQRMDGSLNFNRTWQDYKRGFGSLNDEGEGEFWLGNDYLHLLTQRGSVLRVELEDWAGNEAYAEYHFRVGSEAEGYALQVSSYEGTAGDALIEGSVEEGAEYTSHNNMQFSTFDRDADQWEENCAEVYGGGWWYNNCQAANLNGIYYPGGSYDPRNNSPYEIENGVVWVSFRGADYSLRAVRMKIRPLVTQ
T3 chain 2: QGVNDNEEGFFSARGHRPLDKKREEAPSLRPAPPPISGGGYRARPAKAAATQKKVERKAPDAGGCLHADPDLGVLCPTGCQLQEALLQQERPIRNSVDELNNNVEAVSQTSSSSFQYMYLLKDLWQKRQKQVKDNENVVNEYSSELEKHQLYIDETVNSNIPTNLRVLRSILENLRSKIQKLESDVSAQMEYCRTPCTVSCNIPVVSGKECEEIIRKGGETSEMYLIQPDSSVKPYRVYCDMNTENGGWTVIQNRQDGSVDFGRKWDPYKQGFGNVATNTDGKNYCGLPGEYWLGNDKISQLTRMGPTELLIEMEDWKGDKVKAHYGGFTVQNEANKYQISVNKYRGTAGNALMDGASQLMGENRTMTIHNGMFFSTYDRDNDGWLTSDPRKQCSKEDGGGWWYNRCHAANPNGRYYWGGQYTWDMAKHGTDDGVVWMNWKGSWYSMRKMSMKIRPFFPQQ
T3 chain 3: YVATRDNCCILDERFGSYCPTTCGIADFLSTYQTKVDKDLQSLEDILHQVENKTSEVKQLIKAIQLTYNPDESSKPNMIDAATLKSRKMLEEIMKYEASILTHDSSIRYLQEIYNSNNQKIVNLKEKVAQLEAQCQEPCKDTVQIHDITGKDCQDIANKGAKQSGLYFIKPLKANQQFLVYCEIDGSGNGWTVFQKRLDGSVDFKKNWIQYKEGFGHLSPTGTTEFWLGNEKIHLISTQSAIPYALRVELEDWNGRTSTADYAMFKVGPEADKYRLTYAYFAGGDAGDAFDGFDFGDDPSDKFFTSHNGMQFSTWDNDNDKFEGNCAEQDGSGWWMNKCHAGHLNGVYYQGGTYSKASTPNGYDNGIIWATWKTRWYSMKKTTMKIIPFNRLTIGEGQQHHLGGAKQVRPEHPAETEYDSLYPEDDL
In words: FP displacement.

The target in assay [3] is T2, fibrinogen. Kind of assay: fluorescence polarization. Background: Fluorescence polarisation rises when a labelled molecule tumbles more slowly, as on binding a larger partner.
Assay [4] concerns the target T3, DD(E) DD(E). Kind of assay: fluorescence polarization.
For assay [5], the target named is T2, fibrinogen. Kind of assay: FP displacement.

B1: Tn6-2a (peptide)
chain: WECPYGLCWIQ
B1: the Kd with fibrin was 2.9 µM; in the assay with fibrinogen [1] it was greater than 50 µM.

B2: Tn6-1-Gd (peptide)
chain: GGWFHCPYDLCHIL-NH2
modifications: disulfide 6-11; not fully specified (N-terminus); also: Gd(III) chelated by DTPA
The molecule B2 yielded a Kd with fibrin of 3.1 µM.

B3: Tn7-3a-Gd (peptide)
chain: LPCDYYGTCLD-NH2
modifications: disulfide 3-9; not fully specified (N-terminus); also: Gd(III) chelated by DTPA
As to B3, the Ki in the assay with DD(E) DD(E) [2] came out at 2.9 µM.

B4: Tn6-2b-Fl (peptide)
chain: {fluorescein-Aca}-QWECPYGLCWIQ
modifications: cysteine pairing not given here
Turning to B4, the Kd is 22 µM with fibrinogen [3] and 0.057 µM with DD(E) DD(E) [4].

B5: Tn6-1 (peptide)
chain: WFHCPYDLCHIL
In turn, B5 had a Kd with fibrinogen [5] greater than 200 µM.

B6: Tn7-3 (peptide)
chain: LPCDYYGTCLD
For B6, in the assay with fibrinogen [1], the Kd is greater than 20 µM.

B7: Tn7-3b-Gd (peptide)
chain: GLPCDYYGTCLD-NH2
modifications: disulfide 4-10; not fully specified (N-terminus); also: Gd(III) chelated by DTPA
In the assay with fibrin, B7 displayed a Kd of 8.4 µM.
